The results in this text go back to patent US9957299B2, “Peptidomimetic macrocycles” (AILERON THERAPEUTICS, INC., priority 2010, dated 2018).

Numbered stars: 1 amine (or outer) side, 2 acyl side, 3 side chain; on linkers, the order of the positions; unused ones are H or OH. Bridge positions count the residues as written; N and C are the ends. Square brackets hold non-standard residues; d marks the D form. Peptide text beside a SMILES is read from it. X3 = C=CCCCC(CCCC=C)(N[*:1])C(=O)[*:2]; R8 = C=CCCCCCC[C@@](C)(N)C(=O)O; S8 = C=CCCCCCC[C@](C)(N)C(=O)O; S5 = C=CCCC[C@](C)(N)C(=O)O; Nle = CCCC[C@H](N)C(=O)O

This data set in a line: circular dichroism. Particulars: aqueous, '0% TFE' (buffer not stated; general: 50 mM potassium phosphate pH 7 or water); pH ns; ns °C; 25-50 uM (general text).
As for Ac-QSQQTFSNLWRLLPQN-NH2, the helicity was 5%.

`C=CCCCCCC[C@@](C)(NC(=O)[C@H](Cc1ccccc1)NC(=O)[C@@H](NC(=O)[C@H](CCC(N)=O)NC(=O)[C@H](CCC(N)=O)NC(=O)[C@H](CO)NC(=O)[C@H](CCC(N)=O)NC(C)=O)[C@@H](C)O)C(=O)N[C@@H](CC(N)=O)C(=O)N[C@@H](CC(C)C)C(=O)N[C@@H](Cc1c[nH]c2ccccc12)C(=O)N[C@@H](CCCNC(=N)N)C(=O)N[C@@H](CC(C)C)C(=O)N[C@@H](CC(C)C)C(=O)N[C@@](C)(CCCC=C)C(=O)N[C@@H](CCC(N)=O)C(=O)N[C@@H](CC(N)=O)C(N)=O` displayed a helicity of 55%.

`CC(=O)N[C@@H](CC(C)C)C(=O)N[C@H](C(=O)N[C@@H](Cc1ccccc1)C(=O)N[C@]1(C)CCCCCCCCCCC[C@@](C)(C(=O)N[C@@H](CO)C(N)=O)NC(=O)[C@H](CC(C)C)NC(=O)[C@H](CCC(N)=O)NC(=O)[C@H](C)NC(=O)[C@H](Cc2c[nH]c3cc(Cl)ccc23)NC(=O)[C@H](Cc2ccc(O)cc2)NC(=O)[C@H](Cc2c[nH]cn2)NC1=O)[C@@H](C)O` displayed a helicity of 69.5%.

For `CC(=O)N[C@@H](CCC(N)=O)C(=O)N[C@@H](CO)C(=O)N[C@@]1(C)CCCCCCCCC2(CCCCCCCCCCC[C@@](C)(C(=O)N[C@@H](CCC(N)=O)C(=O)N[C@@H](CC(N)=O)C(N)=O)NC(=O)[C@H](CC(C)C)NC(=O)[C@H](CC(C)C)NC(=O)[C@H](CCCNC(=N)N)NC(=O)[C@H](Cc3c[nH]c4ccccc34)NC(=O)[C@H](CC(C)C)NC(=O)[C@H](CC(N)=O)NC2=O)NC(=O)[C@H](Cc2ccccc2)NC(=O)[C@H]([C@@H](C)O)NC(=O)[C@H](CCC(N)=O)NC1=O` (stereo partly drawn), the helicity turned out to be 96%.

Take `C=CCCCCCC[C@](C)(NC(=O)[C@H](CC(C)C)NC(=O)[C@H](CC(C)C)NC(=O)[C@H](CCCNC(=N)N)NC(=O)[C@H](Cc1c[nH]c2ccccc12)NC(=O)[C@H](CC(C)C)NC(=O)[C@H](CC(N)=O)NC(=O)C(CCCC=C)(CCCC=C)NC(=O)[C@H](Cc1ccccc1)NC(=O)[C@@H](NC(=O)[C@H](CCC(N)=O)NC(=O)[C@](C)(CCCC=C)NC(=O)[C@H](CO)NC(=O)[C@H](CCC(N)=O)NC(C)=O)[C@@H](C)O)C(=O)N[C@@H](CCC(N)=O)C(=O)N[C@@H](CC(N)=O)C(N)=O` (Ac-QS[S5]QTF[X3]NLWRLL[S8]QN-NH2): the helicity was determined as 99%.

`CCCC[C@H](NC(C)=O)C(=O)N1CCC[C@H]1C(=O)N[C@@H](CCCNC(=N)N)C(=O)N[C@@H](Cc1ccccc1)C(=O)N[C@]1(C)CCCCCCC=CCCC[C@@](C)(C(N)=O)NC(=O)[C@H](CC(C)C)NC(=O)[C@H](CC(C)C)NC(=O)[C@H](CCCNC(=N)N)NC(=O)[C@H](Cc2c[nH]c3ccccc23)NC(=O)[C@H](Cc2ccc(O)cc2)NC(=O)[C@H](CC(N)=O)NC1=O` (Ac-[Nle]PRF[R8]NYWRLL[S5]-NH2; staple 5-12) gave a helicity of 54.4%.

Take `CC(=O)N[C@@H](CCC(N)=O)C(=O)N[C@@H](CO)C(=O)N[C@@H](CCC(N)=O)C(=O)N[C@@H](CCC(N)=O)C(=O)N[C@H](C(=O)N[C@@H](Cc1ccccc1)C(=O)N[C@]1(C)CCCCCCCCCCC[C@@](C)(C(=O)N[C@@H](CCC(N)=O)C(=O)N[C@@H](CC(N)=O)C(N)=O)NC(=O)[C@H](CC(C)C)NC(=O)[C@H](CC(C)C)NC(=O)[C@H](CCCNC(=N)N)NC(=O)[C@](C)(Cc2c[nH]c3cc(Cl)ccc23)NC(=O)[C@H](CC(C)C)NC(=O)[C@H](CC(N)=O)NC1=O)[C@@H](C)O`: the helicity is 62.4%.

On to Ac-QTFEHWWSQLLS-NH2, for which the helicity came out at 21.6%.

In the case of `CC(=O)N[C@@H](CCC(N)=O)C(=O)N[C@@H](CO)C(=O)N[C@@H](CCC(N)=O)C(=O)N[C@@H](CCC(N)=O)C(=O)N[C@H](C(=O)N[C@@H](Cc1ccccc1)C(=O)N[C@@H]1CCCCCCC=CCCC[C@@H](C(=O)N[C@@H](CCC(N)=O)C(=O)N[C@@H](CC(N)=O)C(N)=O)NC(=O)[C@H](CC(C)C)NC(=O)[C@H](CC(C)C)NC(=O)[C@H](CCCNC(=N)N)NC(=O)[C@H](Cc2c[nH]c3ccccc23)NC(=O)[C@H](CC(C)C)NC(=O)[C@H](CC(N)=O)NC1=O)[C@@H](C)O`, the helicity was found to be 50.5%.

`CCCC[C@H](NC(C)=O)C(=O)N1CCC[C@H]1C(=O)N[C@@H](CCCNC(=N)N)C(=O)N[C@@H](Cc1ccccc1)C(=O)N[C@]1(C)CCCCCCC=CCCC[C@@](C)(C(=O)N[C@@H](CCC(N)=O)C(=O)N[C@@H](CC(N)=O)C(N)=O)NC(=O)[C@H](CC(C)C)NC(=O)[C@H](CC(C)C)NC(=O)[C@H](CCCNC(=N)N)NC(=O)[C@H](Cc2c[nH]c3ccccc23)NC(=O)[C@H](Cc2ccc(O)cc2)NC(=O)[C@H](CC(N)=O)NC1=O` (Ac-[Nle]PRF[R8]NYWRLL[S5]QN-NH2; staple 5-12) had a helicity of 62.6%.

With `CC(=O)N[C@@H](C)C(=O)N[C@@H](C)C(=O)N[C@@H](C)C(=O)N[C@@H](CCCNC(=N)N)C(=O)N[C@@H](C)C(=O)N[C@@H](C)C(=O)N[C@]1(C)CCCCCCC=CCCC[C@@](C)(C(=O)N[C@@H](C)C(=O)N[C@@H](C)C(N)=O)NC(=O)[C@H](C)NC(=O)[C@H](C)NC(=O)[C@H](CCCNC(=N)N)NC(=O)[C@H](C)NC(=O)[C@H](C)NC(=O)[C@H](C)NC1=O` (Ac-AAARAA[R8]AAARAA[S5]AA-NH2; staple 7-14), the helicity was 131%.

In the case of `CCCC[C@@H]1NC(=O)[C@H](CCCNC(=N)N)NC(=O)[C@H](Cc2c[nH]c3ccccc23)NC(=O)[C@H](CC(C)C)NC(=O)[C@H](CC(N)=O)NC(=O)[C@](C)(NC(=O)[C@H](Cc2ccccc2)NC(=O)[C@@H](NC(=O)[C@H](CCC(N)=O)NC(=O)[C@H](CCC(N)=O)NC(=O)[C@H](CO)NC(=O)[C@H](CCC(N)=O)NC(C)=O)[C@@H](C)O)CCCCCCCCCCC[C@@](C)(C(=O)N[C@@H](CCC(N)=O)C(=O)N[C@@H](CC(N)=O)C(N)=O)NC(=O)[C@H](CC(C)C)NC1=O`, the helicity turned out to be 84.7%.

Regarding `CC(=O)N[C@@H](CCC(N)=O)C(=O)N[C@H](C(=O)N[C@@H](Cc1ccccc1)C(=O)N[C@]1(C)CCCCCCC=CCCC[C@@](C)(C(=O)N[C@@H](CO)C(N)=O)NC(=O)[C@H](CC(C)C)NC(=O)[C@H](CCC(N)=O)NC(=O)[C@H](CO)NC(=O)[C@H](Cc2c[nH]c3ccccc23)NC(=O)[C@H](Cc2c[nH]c3ccccc23)NC(=O)[C@H](Cc2c[nH]cn2)NC1=O)[C@@H](C)O` (Ac-QTF[R8]HWWSQL[S5]S-NH2; staple 4-11), the helicity was determined as 21.6%.

Consider `CC(=O)N[C@@H](CCC(N)=O)C(=O)N[C@@H](CO)C(=O)N[C@@H](CCC(N)=O)C(=O)N[C@@H](CCC(N)=O)C(=O)N[C@H](C(=O)N[C@@H](Cc1ccccc1)C(=O)N[C@]1(C)CCCCCCCCCCC[C@@](C)(C(=O)N[C@@H](CCC(N)=O)C(=O)N[C@@H](CC(N)=O)C(N)=O)NC(=O)[C@H](CC(C)C)NC(=O)[C@H](CC(C)C)NC(=O)[C@H](CCCNC(=N)N)NC(=O)[C@H](Cc2c[nH]c3cc(Cl)ccc23)NC(=O)[C@H](CC(C)C)NC(=O)[C@H](CC(N)=O)NC1=O)[C@@H](C)O`, for which the helicity worked out at 92.4%.

With `CC(=O)N[C@@H](CC(C)C)C(=O)N[C@H](C(=O)N[C@@H](Cc1ccccc1)C(=O)N[C@]1(C)CCCCCCCCCCC[C@@](C)(C(=O)N[C@@H](CO)C(=O)N[C@@H](C)C(N)=O)NC(=O)[C@H](CC(C)C)NC(=O)[C@H](CCC(N)=O)NC(=O)[C@H](C)NC(=O)[C@H](Cc2c[nH]c3ccccc23)NC(=O)[C@H](Cc2ccc(O)cc2)NC(=O)[C@H](Cc2c[nH]cn2)NC1=O)[C@@H](C)O`, the helicity came out at 78.4%.
